Test results as given in the supplement of paper PMC7877785.
± gives the uncertainty stated by the source.

Experiment: self-splicing fitness, log relative to wild type (ln ratio); higher = more splicing; Tetrahymena group I intron in knt gene, E. coli kanamycin selection, DiMSum; sequences stand for … in CUCUCU…GGAGGGAAAAGUUAUCAGGCAUGCACCUGGUAGCUAGUCUUUAAACCAAUAGAUUGCAUCGGUUUAAAAGGCAAGACCGUCAAAUUGCGGGAAAGGGGUCAACAGCCGUUCAGUACCAAGUCUCAGGGGAAACUUUGAGAUGGCCUUGCAAAGGGUAUGGUAAUAAGCUGACGGACAUGGUCCUAACCACGCAGCCAAGUCCUAAGUCAACAGAUCUUCUGUUGAUAUGGAUGCAGUUCACAGACUAAAUGUCGGUCGGGGAAGAUGUAUUCUUCUCAUAAGAUAUAGUCGGACCUCUCCUUAAUGGGAGCUAGCGGAUGAAGUGAUGCAACACUGGAGCCGCUGGGAACUAAUUUGUAUGCGAAAGUAUAUUGAUUAGUUUUGGAGUACUCGUGGUCG
Outline: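 Fitness was computed with DiMSum as the error-weighted combination of replicate fold changes, kanamycin versus none, each normalised to wild type. The library randomised all eight intron nucleotides of the P1ex region, with the intron placed in the knt kanamycin-resistance gene on pET-22b(+) in E. coli BL21(DE3). Six replicate transformations were grown overnight at 37°C or 30°C on LB agar with or without 25 μg/mL kanamycin, plus 100 μg/mL carbenicillin, 50 μM IPTG and 0.2% rhamnose. Pooled colonies were amplicon-sequenced on an Illumina HiSeq 2500.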

AGCCAGCAAUAUUACGUUGC
self-splicing fitness (ln) (30 °C): -2.87 ± 0.18 | self-splicing fitness (ln) (37 °C): -3.28 ± 0.27

AGCGAGCAAUAUUACGAAGC
self-splicing fitness (ln) (30 °C): -3.45 ± 0.43 | self-splicing fitness (ln) (37 °C): -2.17 ± 0.25

AGCGAGCAAUAUUACGAAUU
self-splicing fitness (ln) (37 °C): -1.41 ± 0.34

AGCGAGCAAUAUUACGACAA
self-splicing fitness (ln) (30 °C): -3.33 ± 0.41 | self-splicing fitness (ln) (37 °C): -1.23 ± 0.3

AGCGAGCAAUAUUACGACGU
self-splicing fitness (ln) (30 °C): -1.74 ± 0.083 | self-splicing fitness (ln) (37 °C): -0.339 ± 0.11

AGCGAGCAAUAUUACGAGCA
self-splicing fitness (ln) (30 °C): -0.722 ± 0.11 | self-splicing fitness (ln) (37 °C): -0.526 ± 0.11

AGCGAGCAAUAUUACGCAAA
self-splicing fitness (ln) (30 °C): -3.01 ± 0.36 | self-splicing fitness (ln) (37 °C): -2.52 ± 0.48

AGCGAGCAAUAUUACGCAGC
self-splicing fitness (ln) (30 °C): -4.05 ± 0.46

AGCGAGCAAUAUUACGCCAA
self-splicing fitness (ln) (30 °C): -3.98 ± 0.25 | self-splicing fitness (ln) (37 °C): -1.56 ± 0.16

AGCGAGCAAUAUUACGCCCA
self-splicing fitness (ln) (30 °C): -2.07 ± 0.39 | self-splicing fitness (ln) (37 °C): -1.52 ± 0.34

AGCGAGCAAUAUUACGCGGG
self-splicing fitness (ln) (30 °C): -2.55 ± 0.24 | self-splicing fitness (ln) (37 °C): -2.54 ± 0.36

AGCGAGCAAUAUUACGCUAA
self-splicing fitness (ln) (30 °C): -1.62 ± 0.25 | self-splicing fitness (ln) (37 °C): -1.85 ± 0.3

AGCGAGCAAUAUUACGCUCU
self-splicing fitness (ln) (30 °C): -3.64 ± 0.35 | self-splicing fitness (ln) (37 °C): -2.61 ± 0.29

AGCGAGCAAUAUUACGGCUA
self-splicing fitness (ln) (30 °C): -0.634 ± 0.19 | self-splicing fitness (ln) (37 °C): -0.479 ± 0.13

AGCGAGCAAUAUUACGGGCC
self-splicing fitness (ln) (30 °C): -3.58 ± 0.47 | self-splicing fitness (ln) (37 °C): -2.88 ± 0.43

AGCGAGCAAUAUUACGUAUU
self-splicing fitness (ln) (30 °C): -3.54 ± 0.17 | self-splicing fitness (ln) (37 °C): -1.79 ± 0.16

AGCGAGCAAUAUUACGUCGA
self-splicing fitness (ln) (30 °C): -2.82 ± 0.27 | self-splicing fitness (ln) (37 °C): -2.3 ± 0.28

AGCGAGCAAUAUUACGUUAC
self-splicing fitness (ln) (30 °C): -3.84 ± 0.21 | self-splicing fitness (ln) (37 °C): -2.26 ± 0.23

AGCGAGCAAUAUUACGUUGA
self-splicing fitness (ln) (37 °C): -2.11 ± 0.16

AGCGAGCAAUAUUACGUUGC
self-splicing fitness (ln) (37 °C): -3.69 ± 0.42

AGCUAGCAAUAUUACGACAG
self-splicing fitness (ln) (30 °C): -2.36 ± 0.21 | self-splicing fitness (ln) (37 °C): -1.64 ± 0.24

AGCUAGCAAUAUUACGACAU
self-splicing fitness (ln) (30 °C): -0.509 ± 0.012 | self-splicing fitness (ln) (37 °C): -0.147 ± 0.032

AGCUAGCAAUAUUACGACCA
self-splicing fitness (ln) (30 °C): -0.512 ± 0.17 | self-splicing fitness (ln) (37 °C): -0.124 ± 0.17

AGCUAGCAAUAUUACGAGAG
self-splicing fitness (ln) (30 °C): -2.83 ± 0.15 | self-splicing fitness (ln) (37 °C): -3.13 ± 0.28

AGCUAGCAAUAUUACGAGCG
self-splicing fitness (ln) (30 °C): -0.417 ± 0.085 | self-splicing fitness (ln) (37 °C): -0.0421 ± 0.11

AGCUAGCAAUAUUACGAGGG
self-splicing fitness (ln) (30 °C): -3.75 ± 0.21 | self-splicing fitness (ln) (37 °C): -1.34 ± 0.14

AGCUAGCAAUAUUACGAGUC
self-splicing fitness (ln) (30 °C): -3.89 ± 0.22 | self-splicing fitness (ln) (37 °C): -2.08 ± 0.19

AGCUAGCAAUAUUACGAUCC
self-splicing fitness (ln) (30 °C): 0.0246 ± 0.14 | self-splicing fitness (ln) (37 °C): 0.559 ± 0.16

AGCUAGCAAUAUUACGAUCU
self-splicing fitness (ln) (30 °C): 0.121 ± 0.12 | self-splicing fitness (ln) (37 °C): 0.532 ± 0.13

AGCUAGCAAUAUUACGAUUC
self-splicing fitness (ln) (30 °C): -1.8 ± 0.11 | self-splicing fitness (ln) (37 °C): -0.417 ± 0.15

AGCUAGCAAUAUUACGAUUG
self-splicing fitness (ln) (30 °C): -2.89 ± 0.24 | self-splicing fitness (ln) (37 °C): -1.98 ± 0.23

AGCUAGCAAUAUUACGCAAA
self-splicing fitness (ln) (30 °C): -1.8 ± 0.18 | self-splicing fitness (ln) (37 °C): -2.24 ± 0.24

AGCUAGCAAUAUUACGCAUC
self-splicing fitness (ln) (30 °C): -2.95 ± 0.36

AGCUAGCAAUAUUACGCAUG
self-splicing fitness (ln) (30 °C): -2.12 ± 0.16 | self-splicing fitness (ln) (37 °C): -1.06 ± 0.12

AGCUAGCAAUAUUACGCCAA
self-splicing fitness (ln) (30 °C): -1.7 ± 0.27 | self-splicing fitness (ln) (37 °C): -1.75 ± 0.2

AGCUAGCAAUAUUACGCCCA
self-splicing fitness (ln) (30 °C): -1.5 ± 0.21 | self-splicing fitness (ln) (37 °C): -0.441 ± 0.35

AGCUAGCAAUAUUACGCCCC
self-splicing fitness (ln) (30 °C): -0.339 ± 0.24 | self-splicing fitness (ln) (37 °C): -0.157 ± 0.34

AGCUAGCAAUAUUACGCGAC
self-splicing fitness (ln) (30 °C): -3.48 ± 0.47 | self-splicing fitness (ln) (37 °C): -2.38 ± 0.43

AGCUAGCAAUAUUACGCUCA
self-splicing fitness (ln) (30 °C): -1.67 ± 0.25 | self-splicing fitness (ln) (37 °C): -2.11 ± 0.37

AGCUAGCAAUAUUACGGACG
self-splicing fitness (ln) (30 °C): -0.719 ± 0.075 | self-splicing fitness (ln) (37 °C): -0.105 ± 0.1

AGCUAGCAAUAUUACGGACU
self-splicing fitness (ln) (30 °C): 8.42e-05 ± 0.097 | self-splicing fitness (ln) (37 °C): 0.516 ± 0.12

AGCUAGCAAUAUUACGGCAG
self-splicing fitness (ln) (30 °C): -1.19 ± 0.1 | self-splicing fitness (ln) (37 °C): -1.08 ± 0.12

AGCUAGCAAUAUUACGGCGC
self-splicing fitness (ln) (30 °C): -1.1 ± 0.093 | self-splicing fitness (ln) (37 °C): -0.362 ± 0.14

AGCUAGCAAUAUUACGGCGG
self-splicing fitness (ln) (30 °C): -1.13 ± 0.12 | self-splicing fitness (ln) (37 °C): -0.547 ± 0.14

AGCUAGCAAUAUUACGGUUA
self-splicing fitness (ln) (30 °C): -0.191 ± 0.067 | self-splicing fitness (ln) (37 °C): 0.383 ± 0.073

AGCUAGCAAUAUUACGUAGG
self-splicing fitness (ln) (30 °C): -3.29 ± 0.13 | self-splicing fitness (ln) (37 °C): -1.27 ± 0.13

AGCUAGCAAUAUUACGUGCA
self-splicing fitness (ln) (30 °C): -0.188 ± 0.069 | self-splicing fitness (ln) (37 °C): 0.247 ± 0.096

AGGAAGCAAUAUUACGACAG
self-splicing fitness (ln) (30 °C): -2.74 ± 0.19 | self-splicing fitness (ln) (37 °C): -1.64 ± 0.18
